According to publication PMC12371696:
Ends that are not written are not given here.

Tests used:
[1] = target: Trastuzumab with E5 Ecoil peptides fused at the C-termini of heavy and light chains (TZM-E5); experiment: SEC-MALS; UPLC-SEC-MALS; TZM-Ex mixed with Kx-mRFP at 1:4 molar ratio (2 nmol + 8 nmol), 45 min at room temperature; BEH200 column, 0.2 M potassium phosphate, 0.2 M potassium chloride, 0.02% Tween-20, pH 7.0, 30 °C
[2] = target: Trastuzumab with E5 Ecoil peptides fused at the C-termini of heavy and light chains (TZM-E5)

Molecule | stoichiometry N (K5-mRFP per TZM-E5) [1] | tumor fluorescence (total radiant efficiency, area under the curve 3-336 h) after intravenous injection of the preformed TZM-E5/K5-CF750 complex in the SKOV3 xenograft mouse model ([p/s] × h /[uW/cm^2]) [2]
K5 Kcoil peptide fused to the N-terminus of monomeric red fluorescent protein (K5-mRFP) (designed binder) | 4 | –
KVSALKEKVSALKEKVSALKEKVSALKEKVSALKEGGC(CF750 maleimide) [K5 Kcoil peptide (KVSALKE)5-GGC conjugated to CF750 maleimide near-infrared dye (K5-CF750)] | – | 4.4e+13
